Molecular target: DOPAL-derived αS oligomers (αS incubated with 3,4-dihydroxyphenylacetaldehyde)
Experiment: SDS-PAGE of SEC fractions

stoichiometry N: 2
Substance: DOPAL-derived αS oligomers (αS incubated with 3,4-dihydroxyphenylacetaldehyde)
